Abundance fitness data for 37 variants are collected here from the Human Domainome abundance scans (Beltran et al. 2025).

± gives the uncertainty stated by the source.

B1: Retinoic acid receptor beta, residues 85 to 161; numbered along this chain, P10826 (parent)
chain: YKPCFVCQDKSSGYHYGVSACEGCKGFFRRSIQKNMIYTCHRDKNCVINKVTRNRCQYCRLQKCFEVGMSKESVRND
B2: POU domain, class 4, transcription factor 2, residues 256 to 327; numbered along this chain, Q12837 (parent)
chain: RDLEAFAERFKQRRIKLGVTQADVGSALANLKIPGVGSLSQSTICRFESLTLSHNNMIALKPILQAWLEEAE

In one data set the parent is B1. The data set is described as follows: abundance fitness (aPCA) (normalised: wild type 0, dead -1); higher = more abundant; growth selection in yeast, the domain comes from the species named. To be noted: Homo sapiens.
With HKPCFVCQDKSSGYHYGVSACEGCKGFFRRSIQKNMIYTCHRDKNCVINKVTRNRCQYCRLQKCFEVGMSKESVRND [Y1H], the abundance fitness came out at 0.055 ± 0.13.
In the case of GKPCFVCQDKSSGYHYGVSACEGCKGFFRRSIQKNMIYTCHRDKNCVINKVTRNRCQYCRLQKCFEVGMSKESVRND [Y1G], the abundance fitness was -0.097 ± 0.055.
As to EKPCFVCQDKSSGYHYGVSACEGCKGFFRRSIQKNMIYTCHRDKNCVINKVTRNRCQYCRLQKCFEVGMSKESVRND [Y1E], the abundance fitness was -0.109 ± 0.11.
For the variant CKPCFVCQDKSSGYHYGVSACEGCKGFFRRSIQKNMIYTCHRDKNCVINKVTRNRCQYCRLQKCFEVGMSKESVRND [Y1C], the abundance fitness was -0.008 ± 0.085.
Take IKPCFVCQDKSSGYHYGVSACEGCKGFFRRSIQKNMIYTCHRDKNCVINKVTRNRCQYCRLQKCFEVGMSKESVRND [Y1I]: the abundance fitness is -0.01 ± 0.13.

The variants in the next data set derive from B2. The description is as above. To be noted: Homo sapiens.
Turning to RDLEAFAERFKQRRIKLGVTQADVQSALANLKIPGVGSLSQSTICRFESLTLSHNNMIALKPILQAWLEEAE [G25Q], the abundance fitness is -0.207 ± 0.11.
Turning to RDLEAFAERFKQRRIKLGVTQADVDSALANLKIPGVGSLSQSTICRFESLTLSHNNMIALKPILQAWLEEAE [G25D], the abundance fitness is -0.501 ± 0.26.
Regarding RDLEAFAERFKQRRIKLGVTQADVGSALANLKIPGVGSLSQSTICRFQSLTLSHNNMIALKPILQAWLEEAE [E48Q], the abundance fitness was -0.833 ± 0.15.
RDLEAFAERFKQRRIKLGVTQADVGSALANLKIPGVGSLSQSTICRFESLTLSHNNMIALYPILQAWLEEAE [K61Y]: the abundance fitness was -0.237 ± 0.15.
On to RDLEAFAERFKQRRIKLGVTQADVGSALANLKIPGVGSLSQSTICRFESLTLSHNNMIALHPILQAWLEEAE [K61H], for which the abundance fitness is -0.137 ± 0.12.
Regarding RDLEAFAERFKQRRIKLGVTQADVGSALANLKIPGVGSLSQSTICRFESLTLSSNNMIALKPILQAWLEEAE [H54S], the abundance fitness is -0.145 ± 0.068.
RDLEAFAERFKQRRWKLGVTQADVGSALANLKIPGVGSLSQSTICRFESLTLSHNNMIALKPILQAWLEEAE [I15W]: the abundance fitness was -0.461 ± 0.094.
Consider RDLEAFAERFKQRRIKLGVTQADVGSALANLKIPGVGSLSQSTICRFESLTLSHNNMIALKPILQAWREEAE [L68R], for which the abundance fitness is -0.847 ± 0.43.
With RDLEAFAERFKQRRIKLGVPQADVGSALANLKIPGVGSLSQSTICRFESLTLSHNNMIALKPILQAWLEEAE [T20P], the abundance fitness was -0.473 ± 0.074.
With RDLEAFAERFKQRRIKLGVTQADVGYALANLKIPGVGSLSQSTICRFESLTLSHNNMIALKPILQAWLEEAE [S26Y], the abundance fitness was -0.05 ± 0.12.
Still for that read-out and setting: in the case of RDLEAFAERFKQRRIKLGVTQADVGSALANLKIPGVGSLSQSTICRFESLTLSHINMIALKPILQAWLEEAE [N55I] it was -0.197 ± 0.13; in that of RDLEAFAERFKQRRIKLGVTQADVGSALANLKIPGVGSLSQSTICRFESLTLSHQNMIALKPILQAWLEEAE [N55Q], 0.073 ± 0.088; in that of RDLEAFAERFKQRRIKLGVTQADVGSALANLKIPGVCSLSQSTICRFESLTLSHNNMIALKPILQAWLEEAE [G37C], -0.118 ± 0.092.
With RDLEAFAERFKQRRIKLGVTQADVGSALANLKIPGVFSLSQSTICRFESLTLSHNNMIALKPILQAWLEEAE [G37F], the abundance fitness is -0.398 ± 0.12.
For RDDEAFAERFKQRRIKLGVTQADVGSALANLKIPGVGSLSQSTICRFESLTLSHNNMIALKPILQAWLEEAE [L3D], the abundance fitness is -0.658 ± 0.29.
As to RDLEAFAERFKQRRIKLGVTQADVGSALANLKIPGVGSLSQSTRCRFESLTLSHNNMIALKPILQAWLEEAE [I44R], the abundance fitness is -0.973 ± 0.22.
Regarding RDLEAFAERFKQRRIKLGVTQADVGSALANLKTPGVGSLSQSTICRFESLTLSHNNMIALKPILQAWLEEAE [I33T], the abundance fitness is -0.311 ± 0.069.
Take RDLEAFAERFKQRRIKLGVTQADVGSALANLKLPGVGSLSQSTICRFESLTLSHNNMIALKPILQAWLEEAE [I33L]: the abundance fitness was -0.081 ± 0.066.
Consider RDLEAFAERFKQRRIKLGVTQADVGSALANLKWPGVGSLSQSTICRFESLTLSHNNMIALKPILQAWLEEAE [I33W], for which the abundance fitness was -0.414 ± 0.099.
Still for that read-out and setting: the figure for RDLEAFAERFKQRRIKLGVTQADVGSALANLKIPGVGSLSQSTICRFESLTLSHNNMIALKPILQAQLEEAE [W67Q] is 0.108 ± 0.3.
As for RDLEAFAERFKDRRIKLGVTQADVGSALANLKIPGVGSLSQSTICRFESLTLSHNNMIALKPILQAWLEEAE [Q12D], the abundance fitness is -0.148 ± 0.16.
Consider RDLEAFAERFKQRRIKLGVTQADVGSALANLKIPGVGSLSQSTICRFESLTLSHNNLIALKPILQAWLEEAE [M57L], for which the abundance fitness is -0.157 ± 0.062.
For RDLEAFAERFKQLRIKLGVTQADVGSALANLKIPGVGSLSQSTICRFESLTLSHNNMIALKPILQAWLEEAE [R13L], the abundance fitness is -0.223 ± 0.057.
With RDLEAFAERFKQARIKLGVTQADVGSALANLKIPGVGSLSQSTICRFESLTLSHNNMIALKPILQAWLEEAE [R13A], the abundance fitness was 0.066 ± 0.05.
In the case of RDLEAFAERFKQRRIKLPVTQADVGSALANLKIPGVGSLSQSTICRFESLTLSHNNMIALKPILQAWLEEAE [G18P], the abundance fitness is -1.14 ± 0.19.
Turning to RDLEAFAERFKQRRIKLGVTQFDVGSALANLKIPGVGSLSQSTICRFESLTLSHNNMIALKPILQAWLEEAE [A22F], the abundance fitness was -0.031 ± 0.17.
Still for that read-out and setting: in the case of RDLEAFAERFKQRRIKLGVTQADVGSALANGKIPGVGSLSQSTICRFESLTLSHNNMIALKPILQAWLEEAE [L31G] it was -0.572 ± 0.16; in that of RDLEAFAERFKQRRIKLGVTQADVGSALANRKIPGVGSLSQSTICRFESLTLSHNNMIALKPILQAWLEEAE [L31R], -0.081 ± 0.061.
RDLEAFWERFKQRRIKLGVTQADVGSALANLKIPGVGSLSQSTICRFESLTLSHNNMIALKPILQAWLEEAE [A7W]: the abundance fitness was -0.709 ± 0.28.
For the variant RDLEAFQERFKQRRIKLGVTQADVGSALANLKIPGVGSLSQSTICRFESLTLSHNNMIALKPILQAWLEEAE [A7Q], the abundance fitness was -1.01 ± 0.28.
On to RDLEAFAERFKQRRIKLGVTQADVGSALANLKIPGVGSWSQSTICRFESLTLSHNNMIALKPILQAWLEEAE [L39W], for which the abundance fitness was -0.387 ± 0.12.
Regarding RDLEAFAERFKQRRIKLGVTQADVGSALANLKIPGVGSCSQSTICRFESLTLSHNNMIALKPILQAWLEEAE [L39C], the abundance fitness was -0.168 ± 0.12.
